Blank lines part the entries; values can stand above or below the binder they belong to.
Assays:
[1] = target: T1, CT49 (human); assay: competition ELISA; antibody pre-incubated with alanine-mutant peptide, then on coated CT antigen
T1 sequence (peptide, C-terminal amide (-NH2)): QTAIGVGAA

[2] = target: T2, CT46 (human); assay: as above
T2 sequence (peptide, C-terminal amide (-NH2)): QTAIAVGAP

[3] = target: T3, CT45 (human); assay: as above
T3 sequence (peptide, C-terminal amide (-NH2)): QTAAGVGAP

[4] = target: T4, CT47 (human); assay: as above
T4 sequence (peptide, C-terminal amide (-NH2)): QTAIGAGAP

[5] = target: T5, CT43 (human); assay: as above
T5 sequence (peptide, C-terminal amide (-NH2)): ATAIGVGAP

[6] = target: T6, CT44 (human); assay: as above
T6 sequence (peptide, C-terminal amide (-NH2)): QAAIGVGAP

[7] = target: T7, CT48 (human); assay: as above
T7 sequence (peptide, C-terminal amide (-NH2)): QTAIGVAAP

[8] = target: T8, CT23 (human); assay: competition ELISA; antibody pre-incubated with peptide, then on coated CT antigen
T8 sequence (peptide, C-terminal amide (-NH2)): IGVGAP

[9] = target: T9, CT21 (human); assay: as above
T9 sequence (peptide, C-terminal amide (-NH2)): HTFPQTAIGVGAP

[10] = target: T10, CT25 (human); assay: as above
T10 sequence (peptide, C-terminal amide (-NH2)): VGAP

[11] = target: CT26 (human); assay: as above
[12] = target: T11, CT22 (human); assay: as above
T11 sequence (peptide, C-terminal amide (-NH2)): QTAIGVGAP

[13] = target: CT24 (human); assay: as above
[14] = target: T12, CT1 (human); assay: as above
T12 sequence (peptide): CGNLSTCMLGTYTQDF

[15] = target: T13, CT12 (human); assay: as above
T13 sequence (peptide): DFNKFHT

[16] = target: T14, CT2 (human); assay: as above
T14 sequence (peptide): LGTYTQDFNKFHTFPQ

[17] = target: T15, CT8 (human); assay: as above
T15 sequence (peptide): QDFNKFHTF

[18] = target: T16, CT9 (human); assay: as above
T16 sequence (peptide): QDFNKFHTFP

[19] = target: T17, CT13 (human); assay: as above
T17 sequence (peptide): DFNKFHTF

[20] = target: T18, CT10 (human); assay: as above
T18 sequence (peptide): QDFNKFHTFPQ

[21] = target: T19, CT16 (human); assay: as above
T19 sequence (peptide): FNKF

[22] = target: T20, CT17 (human); assay: as above
T20 sequence (peptide): FNKFH

[23] = target: T21, CT18 (human); assay: as above
T21 sequence (peptide): FNKFHT

[24] = target: T22, CT15 (human); assay: as above
T22 sequence (peptide): DFNKFHTFPQ

[25] = target: T23, CT7 (human); assay: as above
T23 sequence (peptide): TQDFNKFHTFPQ

[26] = target: T24, CT4 (human); assay: as above
T24 sequence (peptide): YTQDFNKFHTFP

[27] = target: T25, CT6 (human); assay: as above
T25 sequence (peptide): TQDFNKFHTFP

[28] = target: T26, CT5 (human); assay: as above
T26 sequence (peptide): TQDFNKFHTF

[29] = target: T27, CT14 (human); assay: as above
T27 sequence (peptide): DFNKFHTFP

[30] = target: T28, CT11 (human); assay: as above
T28 sequence (peptide): DFNKFH

[31] = target: T29, CT3 (human); assay: as above
T29 sequence (peptide): NKFHTFPQTAIGVGAP

[32] = target: T30, WHO国际标准降钙素(Human NIBSC code:89/620) (Human) (UniProt P01258); assay: sandwich chemiluminescence; CT captured by 10B11 magnetic beads, detected by acridinium ester labelled 14D11
T30 sequence (peptide, looked up): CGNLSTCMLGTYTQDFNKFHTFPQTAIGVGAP

- competition rate (对照样品OD值-检测样品OD值)/对照样品OD值 [1]: 56%
- competition rate (对照样品OD值-检测样品OD值)/对照样品OD值 [2]: 92%
- competition rate (对照样品OD值-检测样品OD值)/对照样品OD值 [3]: 97%
- competition rate (对照样品OD值-检测样品OD值)/对照样品OD值 [4]: 85%
- competition rate (对照样品OD值-检测样品OD值)/对照样品OD值 [5]: 97%
- competition rate (对照样品OD值-检测样品OD值)/对照样品OD值 [6]: 98%
- competition rate (对照样品OD值-检测样品OD值)/对照样品OD值 [7]: 62%
- competition rate (对照样品OD值-检测样品OD值)/对照样品OD值 [8]: 98%
- competition rate (对照样品OD值-检测样品OD值)/对照样品OD值 [9]: 98%
- competition rate (对照样品OD值-检测样品OD值)/对照样品OD值 [10]: 98%
- competition rate (对照样品OD值-检测样品OD值)/对照样品OD值 [11]: 60%
- competition rate (对照样品OD值-检测样品OD值)/对照样品OD值 [12]: 98%
- competition rate (对照样品OD值-检测样品OD值)/对照样品OD值 [13]: 98%
B1: 10B11 (antibody, V domains shown)
VH: SDVQLQESGPGLVKPSQSLSLTCTVTGYSITSDYVWNWIRQFPGNKLEWMGYISYSGSTNYNPSLKSRISITRDTSKNQFFLQLNSVTTEDTATYYCAREDWPAWGQ
VL: DIVMTQSQKLMSTSVGDRVSITCKASQNVRSAVAWYQQKPGQSPKTLIYLTSNRHTGVPDRFTGSGSGTDFTLTINNVQSEDLADYFCLQHWNSPLTFGGGTKLEIK

- competition rate (对照样品OD值-检测样品OD值)/对照样品OD值 [14]: 1%
- competition rate (对照样品OD值-检测样品OD值)/对照样品OD值 [15]: 92%
- competition rate (对照样品OD值-检测样品OD值)/对照样品OD值 [16]: 99%
- competition rate (对照样品OD值-检测样品OD值)/对照样品OD值 [17]: 92%
- competition rate (对照样品OD值-检测样品OD值)/对照样品OD值 [18]: 95%
- competition rate (对照样品OD值-检测样品OD值)/对照样品OD值 [19]: 92%
- competition rate (对照样品OD值-检测样品OD值)/对照样品OD值 [20]: 95%
- competition rate (对照样品OD值-检测样品OD值)/对照样品OD值 [21]: 11%
- competition rate (对照样品OD值-检测样品OD值)/对照样品OD值 [22]: -14%
- competition rate (对照样品OD值-检测样品OD值)/对照样品OD值 [23]: 30%
- competition rate (对照样品OD值-检测样品OD值)/对照样品OD值 [24]: 91%
- competition rate (对照样品OD值-检测样品OD值)/对照样品OD值 [25]: 95%
- competition rate (对照样品OD值-检测样品OD值)/对照样品OD值 [26]: 99%
- competition rate (对照样品OD值-检测样品OD值)/对照样品OD值 [27]: 94%
- competition rate (对照样品OD值-检测样品OD值)/对照样品OD值 [28]: 91%
- competition rate (对照样品OD值-检测样品OD值)/对照样品OD值 [29]: 91%
- competition rate (对照样品OD值-检测样品OD值)/对照样品OD值 [30]: 68%
- competition rate (对照样品OD值-检测样品OD值)/对照样品OD值 [31]: 32%
- 发光值 at CT(WHO) 0.125pg/ml [32]: 1730
- 发光值 at CT(WHO) 0.25pg/ml [32]: 2410
- 发光值 at CT(WHO) 0.5pg/ml [32]: 4030
- 发光值 at CT(WHO) 1pg/ml [32]: 7460
- 发光值 at CT(WHO) 2pg/ml [32]: 13600
B2: 14D11 (antibody, V domains shown)
VH: EVQLQQSGPELVKPGTSVKIFCMTSGYTFTEFTMHWVKKSPGESLEWIGGIFPDNGGSTYNRKFKDKATLTVDRSSRTAYLELRSLTSEDSAVYYCARYYYNGRAYGIYAMDYWGQGTSVTVSS
VL: DVVLTQSPLSLFVSLGDQVSISCRSSQSLVHSNGNTYLHWYQLKTGQSPKLLIYTVSNRFSGVPDRFSGSGSGTDFTLKINRVEAEDLGVYFCSQSKLVPWTFGGGTKLEIK
